The values below come from a protein production outcome set (Wang et al. 2014).

The nature of this data set: label from the status in PepcDB records.
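Also: failed if final PepcDB status was selected cloned or expressed and not failed if soluble or beyond.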

With “MHIRRDQYMNEYVWETCEELDKKIADRVRLIRKRRSISQEKLSKISNVSLGSIKRFETTGQISLLSLTKIAVALNIADDLRNIFTEIPYNSIEEVINERR”, the protein production entry was “not failed”.

Turning to “MHKFIVIFVTLLISISVQTLAADLEIEEIELRETPQKMYDRLNQSISFPISFKNREQFERAAQEQGYSPDEFEHILQLLARLNLEPNVKTKVEFQDANSLIELLTSIAQTPLEQATVAMLKGRYIGRTEQKYQEAIAFYNQALSHINDSVDLGSMLLKHTIHEHLGLLHLVIRQDVPALMHFHTYRDIAYKLRNDYLIAAAESKLGHYYNKNQQLTKSLQHYSEAVRLSNRSNYPSMKTHLQLQLAKVYRDLKQWDEALKNAHEAAAGFKKLGNDTYLSSCMTVIAMVYGEQGDWNRAIDYYLNAQQLDAKRGNYIAQGLNFHNLGQAYSHLNDNVNALKYLLMANKIFTDKQSHHYLVYNELLIGEIAQSKQDWTLMMSHAEHALALASNLALLDEQKSALTQIALSAEKMQDQAKVISTQKRIIELNNTSKNTAKDPAVAASVLAEQQLKLELNMVQGKLNDAIESAKETNKLLALSGVILTLLVIAIIALLNQRQKSRRQNESLLQLTLEEPFTHHKGYAALLRDLGPNTPHTRTTALALIEFRDHLMTDLNHGQYFANAITCQLASHISNSLFMPVYVIRQGLFAVRFTETVDPQQALTQLQQQLDKNAFTAIFNLGFINLPLLTKTEINIAPKLLFETVQMALAGARSLPSNTCHYVSLRALDFVPPTLFADPLFLHLEKGIERGLIRVETNAMKEDIVWPCWENNQNRHLLGNI”, the protein production entry is “failed”.

For “MHKTAFIWTDEYYNYSFPDYHPFKSLRESMTKRLLEERGAFHFITLVEPKSIPEEALQLVHSKEYIEFVKYKSKEGQGYLDDGDTPAFKGIYEAALIRVSGSVKALELIKSGEFNHTINIGGGFHHAKRNRAAGFCVFNDVALISKLGESFFSRIAIVDIDGHHADGTQELLIDDNNILKISLHMFHPNFFPGTGDVNEIGLGKGEGYTINIPLPPGTGDDGYLLAFDEIVVPAIERYKPELIILVAGGDSHFNDPLVELKLSTHGYLDVVTKIHRLVHEYSNGRLIMLGGGGYNYDATARIWTISIAEIAGIYDLEYETLHDSFSTKSSQFVMEKIRNTISLIKKIHSLN”, the protein production entry is reported as “failed”.

On to “MHKVLVPFDGSEHAMRALGYVIELSGDLNKPLEVHVLNVQASPIDYSLYLAPDMIDGVKAGLKNEGKRVLDDAIALLAAAGVPFQAHVDLGNVAEQVEAEVQRLGCDAVVMGTRGLGNFGGLLLGSVATRVIHEVSVPVTLIK”, for which the protein production result is listed as “failed”.

Take “MHKVVIVGRPNVGKSSLFNRLLKKRSAVVADVPGVTRDLKEGVVETDRGRFLLVDTGGLWSGDKWEKKIQEKVDRALEDAEVVLFAVDGRAELTQADYEVAEYLRRKGKPVILVATKVDDPKHELYLGPLYGLGFGDPIPTSSEHARGLEELLEAIWERLPVRQIETEPEVAGIRLAIVGRPNAGKSSLLNAILGEERVIVSEEPGTTRDAIDVEFFFGGQRFVLVDTAGIRKRPENLVEELAIRRSLRAMDEADVVLLVVDPFQVGDRELKLANEALDRGKPVLLVITKWDLVDKEDAPKMRRLLREKLAHLDHLPRVFTSALTRQNLDRIFREAVRLHELNQTRVPTAELNRWVAVWTSRVQMPNFKGKPLKILYATQPEVAPPTFVFFVNHPEFVTRAFENYLKNRIGEDLGLREVPFRLVFRGRREE”: the protein production entry was “not failed”.

As for “MHLKKIWAVIYAVMLAAFSTFVLLDAFVIPKDRIKADEPIQSQEITDESIEAKAEAVITENSYKDDKISITISELREYDTSIYVADIQLADASYLRAGLADGTFGRNVTEVTSQIAQDSNAILAINGDFYGFRNKGYVMRNGYLYRETAQQGRQGNSRQEDLVIYEDGHMDVIEENEVAAQTLKDSGASQIFSFGPGLIKNGNITVDENSEVEQSMQSNPRTAIGMITPLHYIMAVSDGRTEASEGLTLYQLAQIMKGQDCVTAYNLDGGGSSTMWFNGEVVNKPTSYGSKISERAVSDIVYIGR”, the protein production entry is “failed”.

Take “MHLNNLNNFNNLENNGEYHCSGPIIKKPFRHIALTVPSSDITNFNEIFYVEPQYIAQAIRLTNTFQGAIDPLTLNFNFEKALQIANGLPNAGVTGTINQSVIHQTIEVSVMISQIKEIIRSVLGLVINSANFWNSVVSAITNTFTNLEPQVDENWIVWRNLSATQTSYFYKILFSIQNEDTGRFMAILPIAFEITVDVQKQQLLFITIKDSARYEVKMKALTVVQALDSYNAPIIDVFNVRNYSLHRPNHNILQNLNVNPIKS”: the protein production entry is recorded as “not failed”.

Take “MHLPHFALSSVLSLTLCAIPNLGFASSNQTEDSTQARPTWLRDIALSPDGQKIAFTYAGQIWLVPAQGGDAVALTESGVYSETPIWSPDSQSIAFTADRYGLGDVFILSIQGGESRRLTYHGAKDIPYAFSADGQQLYFSSRRLGDDKANANVKQGSFMAQLYSVPAAGGREQRVLPIAISDLAISPSHSDILYTNQPSDEQPWRKGALSDATRDIWQWSPLTGKHTQITTFRGEDRNPVWSADGSSMYYLSEQAGSFNVWQQRFDGSEPVQITDHQKLPVRFLSASLQGDLAYGFDGEIWRLKAGAKQAEKVPVSIRRSAMPDGRHNVNFNLEATEMVVAPNAAEVAIVARGDVYVVSLLSGLTQRITDTPEAERDVSFSSDGYRLIYASEREGSWNLYQSYVNDGGKSFSSSLDIIEEPVLTTEQDVIQPLYSPNLKRIVYRENRNTLKVYDIEQDKTYTLLDAHALYSYFDKDLSYQWSPDSEYIVTRDRAMSNGDIQLLKFDGSEAPINLSQSGFSEFAPQFSADGQWVYWLTDAKGLRDIDDMVVQYDVYGVALNREAKFNFNKTQEQLWLEEEIAAEKNLGPGQNPPAELTVVENKGLKQRTMRMTPTSLNIIFKHLTHDNQALIIAYQLGDSVQISEINLRSGEMTALFNRLSEDAALLAMASDDASLLIMGEHGIENLNVLTGESKFVRYEAKANFDFRAEIRLLV”: the protein production entry is given as “failed”.

As for “MHLSLLVPFLFWITGCCTAEDPVTGPEEVSGQEQGSLTVQCRYTSGWKDYKKYWCQGVPQRSCKTLVETDASEQLVKKNRVSIRDNQRDFIFTVTMEDLRMSDAGIYWCGITKGGLDPMFKVTVNIGPAIQVPITVPTMPPITSTTTIFTVTTTVKETSMFPTLTSYYSDNGHGGGDSGGGEDGVGDGFLDLSVLLPVISAVLLLLLLVASLFAWRMVRRQKKAAGPPSEQAQSLEGDLCYADLSLKQPRTSPGSSWKKGSSMSSSGKDHQEEVEYVTMAPFPREEVSYAALTLAGLGQEPTYGNTGCPITHVPRTGLEEETTEYSSIRRPLPAAMP”, the protein production result is listed as “not failed”.

Take “MHNFLIIGAFISLGILLRRFKALPEHTPFVLNKIAINVCLPALILLNAPKIAFTRDAVTAAIIPWALLALSVGLVLLGAKIWQWPRPVVGVLLLIVPLGNTSFLGVPIIRTFFGADGLPHLIVYDQIGTMMIFATYGSFILSLYGQDGTLSVSAVVRKMLLFPPSLALAAGLALKSWSYPDGLSLALHYLALPLVPVVMTAIGLQLRLRLPPHLAAPVGIGLGIKMLAAPLAVLVACRLVDMNGLAVGVSVVEAGMPPMVTAGALAVVAGMEAELAIALVGIGILCSFGSLPALFWLVSL”: the protein production entry is recorded as “failed”.

“MHPASFDDHIFRLLIEAVDDYAIYIIDAQGHILTWNNGAERNTGYNADEIIGQSFELFYTPEDLATQLPAKGLLHANQLGHYENQGWRVRKNGKRFWGHITLSALHDSEHNLQGFVQVTRDLTD”: the protein production result is listed as “failed”.

On to “MHQPHLSAEEKQHSHDHLSLDLIEAQYQLKNSAGKKNAKSVLVLVSGIELAGKGESVKQLREWVDPRYLRVKADPPQLLTTNQTFWQPYSSFIPAEGQIVVLFGNWYSDLLTTAMHVSKPLDETLFDAYVNSMRAFEQDLKNNHVDVVKVWFDLSWKSLQKRLDHIDASERQWHKLHGLDWRSKKQYETLQKLRQRFTPDWVFIDGEDEALRDREFAECILKALKDVPDHVQQADAAWTQSVVPQALLQPSSEVLEKAKYKKKLKKLTRRVADALRYDQRNVIVVFEGMDAAGKGGSIKRIVKRLDPREYDIFTISAPEKYELRHPYLWRFWTKLQNCSDIRIFDRSWYGRVLVERVEAFASDIEWQRAYDEINRFEKDLTDSQTVIVKIWLSISKEEQEKRFEAREKTPHKRFKITEDDWRNRAKWDEYLNAAADMFEHTSTDCAPWTIIATDDKPTARIKMLKAILKQLKSK”, for which the protein production result was “failed”.
